Patent US20200150041

Test system: SDM-25

Sequence of MMP9 protease (chain, as listed by the source): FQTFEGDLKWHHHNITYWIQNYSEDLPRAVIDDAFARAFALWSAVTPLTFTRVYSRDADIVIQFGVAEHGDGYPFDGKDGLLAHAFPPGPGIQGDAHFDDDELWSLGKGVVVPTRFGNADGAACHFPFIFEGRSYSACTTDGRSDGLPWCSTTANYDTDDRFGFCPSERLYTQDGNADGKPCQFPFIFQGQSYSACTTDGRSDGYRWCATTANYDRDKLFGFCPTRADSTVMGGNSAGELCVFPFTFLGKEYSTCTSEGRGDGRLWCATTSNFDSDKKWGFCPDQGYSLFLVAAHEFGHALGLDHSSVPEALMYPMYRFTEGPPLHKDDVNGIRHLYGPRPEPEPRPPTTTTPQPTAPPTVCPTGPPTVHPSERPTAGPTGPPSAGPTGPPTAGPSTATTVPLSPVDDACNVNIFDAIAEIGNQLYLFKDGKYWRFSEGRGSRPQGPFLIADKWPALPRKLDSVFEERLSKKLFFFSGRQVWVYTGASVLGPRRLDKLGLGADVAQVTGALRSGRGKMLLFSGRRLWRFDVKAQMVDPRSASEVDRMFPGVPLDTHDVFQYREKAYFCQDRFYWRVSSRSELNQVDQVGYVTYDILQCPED

Question: With MMP9 protease as the substance, how does the “fluorescence emission spectra (630 nm excitation) before and after protease treatment; FRET loss on cleavage” value read?
Answer: The value was “After cleavage, Cy7 no longer quenches Cy5, resulting in an increase of the 670 nm Cy5 emission peak and a reduction of the Cy7 re-emission at 780 nm”.
